# T1: His-MPDZ-PDZ1-4 (aa 1-700) WT (human, UniProt O75970-3 1-700)
# T1 sequence (looked up): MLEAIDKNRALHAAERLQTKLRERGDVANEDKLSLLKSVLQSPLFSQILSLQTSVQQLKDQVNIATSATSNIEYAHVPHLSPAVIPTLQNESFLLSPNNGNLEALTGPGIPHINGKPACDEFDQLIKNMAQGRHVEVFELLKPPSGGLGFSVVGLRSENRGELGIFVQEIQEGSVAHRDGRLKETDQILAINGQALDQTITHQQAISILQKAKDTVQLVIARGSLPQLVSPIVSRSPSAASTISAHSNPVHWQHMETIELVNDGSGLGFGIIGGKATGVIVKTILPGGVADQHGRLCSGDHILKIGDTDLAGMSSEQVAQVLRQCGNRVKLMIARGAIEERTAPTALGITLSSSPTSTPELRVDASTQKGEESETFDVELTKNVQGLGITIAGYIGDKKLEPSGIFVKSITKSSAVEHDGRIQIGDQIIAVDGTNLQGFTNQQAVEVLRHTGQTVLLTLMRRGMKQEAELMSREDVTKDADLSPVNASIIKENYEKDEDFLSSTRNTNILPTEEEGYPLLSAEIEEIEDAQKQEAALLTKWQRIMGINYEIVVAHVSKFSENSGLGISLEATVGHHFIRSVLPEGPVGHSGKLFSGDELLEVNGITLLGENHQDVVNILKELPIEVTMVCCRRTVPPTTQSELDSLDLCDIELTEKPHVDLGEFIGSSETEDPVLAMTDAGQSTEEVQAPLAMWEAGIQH
# Biological target: T1, His-MPDZ-PDZ1-4 (aa 1-700) WT
# Assay: pull-down
binder,measurement,value
"GST-DAPLE (aa 1908-2028) (domain or fragment, human, UniProt Q9P219 1908-2028, looked up) IATAGAGAAAAGSGSNSQLLHFSPAAAPAARTKPKAPPRSGEVATITPVRAGLSLSEGDGVPGQGCSEGLPAKSPGRSPDLAPHLGRALEDCSRGSVSKSSPASPEPGGDPQTVWYEYGCV",binding result,binds

# Source: paper PMC6727773 (Molecular Biology of the Cell, 2019)
